According to the RNAGym collection of RNA variant scans (doi:10.7554/elife.80360):

B1: HDV Ribozyme (parent)
chain: GGCCGGCAUGGUCCCAGCCUCCUCGCUGGCGCCGGCUGGGCAACAUUCCGAGGGGACCGUCCCCUCGGUAAUGGCGAAUGGGACCCA

Variants of: B1
Test: self-cleavage, relative activity (ratio to wild type); higher = more cleavage; co-transcriptional

Row | Variant | self-cleavage
1 | C7G U60A | 0.317
2 | C7A G80U | 0.152
3 | C7A G80A | 0.0739
4 | A8C G73U | 0.264
5 | A8C G68C | 0.604
6 | A8G G76A | 1.09
7 | C7A C66A | 0.539
8 | C7U A45G | 0.72
9 | C7A U12G | 0.237
10 | C7G U12A | 0
11 | C7G G73A | 0.0639
12 | A8C C13G | 0.0692
13 | C7U A56G | 0.997
14 | C7U A56C | 0.806
15 | C7A C44G | 0.0594
16 | C7A C44U | 0.0723
17 | C7A G52U | 0.462
18 | A8C U69C | 0.831
19 | C7U C61U | 0.831
20 | A8C A83C | 0.317
21 | A8C A83U | 0.237
22 | A8C U60G | 0.554
23 | C7U G50U | 0.864
24 | A8C U20G | 0.175

Row | Variant | self-cleavage
25 | C7U C33U | 0.672
26 | C7U C33G | 0.0536
27 | A8U G31U | 0.0475
28 | A8U A70U | 0.772
29 | C7G G52U | 0.196
30 | A8C A16C | 1.07
31 | C7G G11A | 0.0346
32 | A8U C66A | 1.06
33 | C7G G40A | 0.0536
34 | C7G G40U | 0.268
35 | C7G G40C | 0
36 | C7G U37C | 0.399
37 | C7G U37G | 0
38 | A8U A16G | 0.684
39 | C7U G17C | 0
40 | C7U G17U | 0.259
41 | A8G C64G | 0.7
42 | A8G C64U | 1.07
43 | A8U C33U | 0.453
44 | A8U C33G | 0.0536
45 | A8U C84G | 0.462
46 | C7U G11U | 0.16
47 | C7U G11A | 0.423
48 | A8G C61A | 0.886

Row | Variant | self-cleavage
49 | C7U C15G | 0.536
50 | C7G C19G | 0.0791
51 | C7U U60G | 0.831
52 | C7U U60C | 1.26
53 | A8G C86U | 1.11
54 | A8C C32U | 0.538
55 | A8C C32G | 0.185
56 | C7A G38C | 0.106
57 | A8C C44U | 0.199
58 | A8G G40A | 1.08
59 | C7U A77U | 0.151
60 | C7U A77C | 0.196
61 | A8G A45G | 0.9
62 | A8C C62U | 0.918
63 | C7U G40U | 0.821
64 | A8G U46A | 0.723
65 | A8G U46G | 0.623
66 | C7G A8U | 0.104
67 | A8U C32U | 0.554
68 | A8C C85U | 0.886
69 | A8C A56U | 1
70 | C7A C58A | 0.772
71 | A8G U60G | 1.11
72 | C7G C13U | 0.158

Row | Variant | self-cleavage
73 | C7G C13G | 0.0554
74 | A8G U72G | 0.536
75 | C7A C36G | 0.0875
76 | A8G G67U | 0.978
77 | C7G G59U | 0.237
78 | C7U G76A | 1.09
79 | C7U G76U | 0.755
80 | A8G U65A | 0.89
81 | C7U A16C | 0.196
82 | C7G C86U | 0.383
83 | A8U G11U | 0.201
84 | C7A U23G | 0.19
85 | A8C G54U | 0.618
86 | A8C G54A | 0.759
87 | A8G C62U | 0.95
88 | A8G C62G | 0.489
89 | C7G G10U | 0.0462
90 | C7A G73C | 0.106
91 | C7A G73U | 0.128
92 | C7G G34C | 0.213
93 | C7A C62U | 0.721
94 | A8G A83U | 0.246
95 | C7G A45U | 0.383
96 | A8C G39C | 0.0615

Row | Variant | self-cleavage
97 | A8C G39A | 0.151
98 | A8C G39U | 0.381
99 | C7U A51U | 1.13
100 | A8U G17A | 0.665
101 | A8U G17U | 0.18
102 | C7G A51G | 0.237
103 | A8G C66U | 1.14
104 | A8G G11U | 0.0739
105 | A8G G11C | 0.0437
106 | A8C G81A | 0.151
107 | C7G C33U | 0
108 | A8U C41U | 0.594
109 | A8G C32A | 0.0852
110 | C7G C63U | 0.674
111 | A8G G38A | 0.0959
112 | A8G G38U | 0.0405
113 | C7U U47C | 0.482
114 | C7U C41U | 0.802
115 | A8U C19A | 0
116 | A8G C19G | 0.0594
117 | A8U G29C | 0.0554
118 | A8G U79C | 0.256
119 | A8G U79A | 0.692
120 | C7U U12G | 1.02

Row | Variant | self-cleavage
121 | C7U C14U | 0.785
122 | C7U G53U | 1.09
123 | C7U G53A | 0.964
124 | C7G G31C | 0.95
125 | C7G G31A | 0.441
126 | C7A G50U | 0.475
127 | C7A C48G | 0.462
128 | A8U A42G | 0.111
129 | C7G U27C | 0.151
130 | C7U C18G | 0.0639
131 | C7G G39A | 0.147
132 | C7G G39C | 0
133 | A8G G35U | 0.306
134 | A8G G59C | 0.858
135 | A8G G59U | 0.914
136 | C7A G11C | 0
137 | C7A G11A | 0.0674
138 | A8U C61U | 0.739
139 | A8U C61A | 0.831
140 | C7U A87C | 0.968
141 | C7U A87U | 0.938
142 | A8U G25C | 0.277
143 | C7G C44U | 0.0462
144 | A8G C85G | 0.895

Row | Variant | self-cleavage
145 | A8U A71U | 0.917
146 | A8U A71G | 0.917
147 | A8U A71C | 0.703
148 | A8G C33U | 0.751
149 | A8G C33A | 0.101
150 | A8C G82C | 0.0923
151 | A8U C64U | 1.11
152 | C7U G31U | 0.575
153 | A8G A87C | 1.18
154 | A8G A87G | 0.942
155 | C7G A87U | 0.284
156 | C7U G74U | 0.202
157 | A8C U72G | 0.332
158 | A8C U72A | 0.375
159 | A8G U69A | 0.942
160 | A8U A43G | 0.578
161 | A8G G39C | 0.142
162 | C7G C85A | 0.302
163 | C7A G59A | 0.753
164 | C7A G59U | 0.646
165 | C7U U79A | 0.675
166 | A8G C18G | 0
167 | A8C U79A | 0.506
